B1: phage-displayed heptapeptide of SEQ ID NO: 139 (without the added alanines), Ph.D.-7 library (peptide)
peptide: SASAPVS
B2: phage-displayed heptapeptide of SEQ ID NO: 137 (without the added alanines), Ph.D.-7 library (peptide)
peptide: KKMKRRK
notes: Residues 2-8 follow from 'after adding alanine on both sides'
B3: phage-displayed heptapeptide of SEQ ID NO: 138 (without the added alanines), Ph.D.-7 library (peptide)
peptide: ITFNAQY
B4: oligopeptide … (aa 75-98) [SEQ ID NO: 106] (peptide)
peptide: EDPPGEEDLPGEEDLPGEEDLPEV
notes: Synthetic; cysteine added onto the C-end; C-terminal acid

Key:
[1] = biological target: B4; test: phage display panning, 5 cycles, on immobilized peptide SEQ ID NO: 106
[2] = biological target: T1, monoclonal antibody M75 (MAb M75), secreted from the hybridoma VU-M75, ATCC HB 11128; test: competition ELISA: peptide in solution against immobilized GST-MN for M75
T1 construct: also called MAb 75

Binder	binding result [1]	IC50 [2] [ng/mL]
B1	binds	–
B2	binds	–
B3	binds	–
B4	–	1

— patent publication EP1832653A1 (INSTITUTE OF VIROLOGY, dated 2007)
